Experimental findings from paper PMC12609908 are described below.

Series [1] has as its target T1, CutR (Mycobacterium sp. strain JC1) (UniProt D5G1X9).
T1 sequence: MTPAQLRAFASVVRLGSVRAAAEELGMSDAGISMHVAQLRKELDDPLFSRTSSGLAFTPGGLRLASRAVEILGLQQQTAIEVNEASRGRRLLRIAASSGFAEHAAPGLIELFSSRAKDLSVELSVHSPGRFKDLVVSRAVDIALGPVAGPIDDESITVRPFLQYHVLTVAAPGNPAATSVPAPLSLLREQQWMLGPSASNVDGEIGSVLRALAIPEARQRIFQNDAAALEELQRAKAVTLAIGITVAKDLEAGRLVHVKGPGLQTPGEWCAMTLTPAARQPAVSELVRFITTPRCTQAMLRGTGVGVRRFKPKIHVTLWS
Nature of the series: EMSA. To be noted: 50 mM Tris-HCl pH 8.0, 100 mM NaCl, 40% glycerol, 5 mM DTT, 2 mM EDTA, 4 °C 1 h; 10% native PAGE in 0.5x TBE at 4 °C.

Series [2] has as its target CutR, LysR-type transcriptional regulator from Mycobacterium sp. strain JC1 (native protein) (Mycobacterium sp. strain JC1). Nature of the series: SEC; Superdex G-75 column, 20 mM Tris-HCl pH 7.5, 500 mM NaCl, 5 mM beta-mercaptoethanol; size standards conalbumin, ovalbumin, carbonic anhydrase, ribonuclease A, aprotinin.

As to “ACCCCGAGTTAAGTGATTCCTTAACTCGCTATTGACGCCATCGCGGCGGCAACGGAAACTAGCCACTTCAGCCACGACGTTGTGAGGATGATCACATGCAA (double strand) [IR1 to CRP motif fragment (101 bp)]”, the binding result in series [1] was “binds”.
Consider “CutR, LysR-type transcriptional regulator from Mycobacterium sp. strain JC1 (native protein) (natural protein)”, for which, in series [2], the stoichiometry N is 2.
